Source: PMC6363788, “Crystal structures of human lysosomal EPDR1 reveal homology with the superfamily of bacterial lipoprotein transporters” (Communications Biology, 2019)

Biological target: the molecule itself
Test: SEC; in solution; the only column and buffer told are those of the purification step (Superdex200 16/60, 10 mM Tris-HCl pH 8.0, 100 mM NaCl)

B1: Human EPDR1 (ependymin-related protein 1), glycosylated (natural protein, UniProt Q9UM22-1 38-224, looked up)
chain: APRPCQAPQQWEGRQVMYQQSSGRNSRALLSYDGLNQRVRVLDERKALIPCKRLFEYILLYKDGVMFQIDQATKQCSKMTLTQPWDPLDIPQNSTFEDQYSIGGPQEQITVQEWSDRKSARSYETWIGIYTVKDCYPVQETFTINYSVILSTRFFDIQLGIKDPSVFTPPSTCQMAQLEKMSEDCSW
modifications: N-glycan at Asn130; disulfide bonds C42/C172, C113/C210, C88/C222
notes: EPDR1 (MERP-1; UCC1), human, Uniprot Q9UM22, residues 38-224; The N-terminal tag of the PB-T-PAF plasmid (secretion signal, protein A tag, thrombin site) was removed with thrombin; The six C-terminal histidines have no stated cleavage site, and the protein went through a second Ni2+ step after thrombin, so they were probably kept; also called MERP-1; UCC1; not shown: protein A, N-terminal, cleaved
  stoichiometry N: 2
